What was measured:
Conditions in all cases: 0.1 M Tris-acetate pH 7.6, 30°C, apparent
[1] = test system: T1, C[C@@H](Cl)C(=O)O; experiment: colourimetric chloride release (Bergmann and Sanik), A460; type: biochemical, Rhizobium sp. RC1
T1 construct: recombinant from pET-22b(+)-dehE in E. coli, purified from cell-free extract; 32 kDa band on SDS-PAGE; monomeric
Source text: (§1) colourimetric chloride release (Bergmann and Sanik), A460 on DehE (non-stereospecific α-haloalkanoic acid dehalogenase E)

[2] = test system: T2, C[C@H](Cl)C(=O)O; experiment: as above; type: biochemical, Rhizobium sp. RC1
T2 construct: recombinant from pET-22b(+)-dehE in E. coli, purified from cell-free extract; 32 kDa band on SDS-PAGE; monomeric
Source text: as §1

[3] = test system: T3, O=C(O)CCCl; experiment: as above; type: biochemical, Rhizobium sp. RC1
T3 construct: recombinant from pET-22b(+)-dehE in E. coli, purified from cell-free extract; 32 kDa band on SDS-PAGE; monomeric
Source text: as §1

[4] = test system: C[C@@H](Cl)C(=O)O; experiment: purified protein
[5] = test system: C[C@H](Cl)C(=O)O; experiment: purified protein

Row | Substance | Km [1] | kcat [1] | kcat/Km [1] | Km [2] | kcat [2] | kcat/Km [2] | Km [3] | kcat [3] | kcat/Km [3] | Km [4] | kcat [4] | kcat/Km [4] | Km [5] | kcat [5] | kcat/Km [5]
1 | DehE (non-stereospecific α-haloalkanoic acid dehalogenase E) (Rhizobium sp. RC1; S188V) | (4.5 ± 0.01) x 10^-4 M | 9.18 s⁻¹ | 20400 M⁻¹ s⁻¹ | (4.2 ± 0.02) x 10^-4 M | 13.1 s⁻¹ | 31200 M⁻¹ s⁻¹ | (4.9 ± 0.02) x 10^-4 M | 12.6 s⁻¹ | 25600 M⁻¹ s⁻¹ |  |  |  |  |  | 
2 | DehE (non-stereospecific α-haloalkanoic acid dehalogenase E) (Rhizobium sp. RC1) |  |  |  |  |  |  |  |  |  | (4.8 ± 0.03) x 10^-4 M | 7.76 s⁻¹ | 16100 M⁻¹ s⁻¹ | (4.3 ± 0.02) x 10^-4 M | 12.3 s⁻¹ | 28600 M⁻¹ s⁻¹
